# B1: Mothers against decapentaplegic homolog 4 (Homo sapiens), Q13485 (parent)
# chain: MDNMSITNTPTSNDACLSIVHSLMCHRQGGESETFAKRAIESLVKKLKEKKDELDSLITAITTNGAHPSKCVTIQRTLDGRLQVAGRKGFPHVIYARLWRWPDLHKNELKHVKYCQYAFDLKCDSVCVNPYHYERVVSPGIDLSGLTLQSNAPSSMMVKDEYVHDFEGQPSLSTEGHSIQTIQHPPSNRASTETYSTPALLAPSESNATSTANFPNIPVASTSQPASILGGSHSEGLLQIASGPQPGQQQNGFTGQPATYHHNSTTTWTGSRTAPYTPNLPHHQNGHLQHHPPMPPHPGHYWPVHNELAFQPPISNHPAPEYWCSIAYFEMDVQVGETFKVPSSCPIVTVDGYVDPSGGDRFCLGQLSNVHRTEAIERARLHIGKGVQLECKGEGDVWVRCLSDHAVFVQSYYLDREAGRAPGDAVHKIYPSAYIKVFDLRQCHRQMQQQAATAQAAAAAQAAAVAGNIPGPGSVGGIAPAISLSAAAGIGVDDLRRLCILRMSFVKGWGPDYPRQSIKETPCWIEIHLHRALQLLDEVLHTMPIADPQPLD
# partner: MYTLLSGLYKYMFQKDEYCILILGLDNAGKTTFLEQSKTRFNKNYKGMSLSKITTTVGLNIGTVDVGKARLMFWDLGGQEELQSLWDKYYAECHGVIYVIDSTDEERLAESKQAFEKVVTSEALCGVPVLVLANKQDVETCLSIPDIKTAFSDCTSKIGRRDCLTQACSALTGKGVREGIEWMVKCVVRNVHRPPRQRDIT
# B2: Mothers against decapentaplegic homolog 4 (Homo sapiens), Q13485 (parent)
# chain: B1 chain
# partner: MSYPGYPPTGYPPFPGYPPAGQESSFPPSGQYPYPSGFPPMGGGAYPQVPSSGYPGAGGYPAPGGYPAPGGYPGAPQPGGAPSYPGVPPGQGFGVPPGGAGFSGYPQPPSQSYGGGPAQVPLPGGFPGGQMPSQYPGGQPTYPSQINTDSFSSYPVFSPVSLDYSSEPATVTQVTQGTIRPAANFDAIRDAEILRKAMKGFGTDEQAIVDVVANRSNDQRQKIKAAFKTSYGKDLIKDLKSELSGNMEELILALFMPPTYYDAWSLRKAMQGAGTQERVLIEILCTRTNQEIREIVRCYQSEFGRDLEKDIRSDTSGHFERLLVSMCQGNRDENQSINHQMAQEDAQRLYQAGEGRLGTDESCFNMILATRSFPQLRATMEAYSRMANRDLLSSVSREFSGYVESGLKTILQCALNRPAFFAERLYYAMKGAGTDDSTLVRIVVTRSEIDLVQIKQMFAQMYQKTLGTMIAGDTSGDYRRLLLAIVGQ
# B3: 14-3-3 protein zeta/delta (Homo sapiens), P63104 (parent)
# chain: MDKNELVQKAKLAEQAERYDDMAACMKSVTEQGAELSNEERNLLSVAYKNVVGARRSSWRVVSSIEQKTEGAEKKQQMAREYREKIETELRDICNDVLSLLEKFLIPNASQAESKVFYLKMKGDYYRYLAEVAAGDDKKGIVDQSQQAYQEAFEISKKEMQPTHPIRLGLALNFSVFYYEILNSPEKACSLAKTAFDEAIAELDTLSEESYKDSTLIMQLLRDNLTLWTSDTQGDEAEAGEGGEN
# B4: Mothers against decapentaplegic homolog 4 (Homo sapiens), Q13485 (parent)
# chain: B1 chain
# partner: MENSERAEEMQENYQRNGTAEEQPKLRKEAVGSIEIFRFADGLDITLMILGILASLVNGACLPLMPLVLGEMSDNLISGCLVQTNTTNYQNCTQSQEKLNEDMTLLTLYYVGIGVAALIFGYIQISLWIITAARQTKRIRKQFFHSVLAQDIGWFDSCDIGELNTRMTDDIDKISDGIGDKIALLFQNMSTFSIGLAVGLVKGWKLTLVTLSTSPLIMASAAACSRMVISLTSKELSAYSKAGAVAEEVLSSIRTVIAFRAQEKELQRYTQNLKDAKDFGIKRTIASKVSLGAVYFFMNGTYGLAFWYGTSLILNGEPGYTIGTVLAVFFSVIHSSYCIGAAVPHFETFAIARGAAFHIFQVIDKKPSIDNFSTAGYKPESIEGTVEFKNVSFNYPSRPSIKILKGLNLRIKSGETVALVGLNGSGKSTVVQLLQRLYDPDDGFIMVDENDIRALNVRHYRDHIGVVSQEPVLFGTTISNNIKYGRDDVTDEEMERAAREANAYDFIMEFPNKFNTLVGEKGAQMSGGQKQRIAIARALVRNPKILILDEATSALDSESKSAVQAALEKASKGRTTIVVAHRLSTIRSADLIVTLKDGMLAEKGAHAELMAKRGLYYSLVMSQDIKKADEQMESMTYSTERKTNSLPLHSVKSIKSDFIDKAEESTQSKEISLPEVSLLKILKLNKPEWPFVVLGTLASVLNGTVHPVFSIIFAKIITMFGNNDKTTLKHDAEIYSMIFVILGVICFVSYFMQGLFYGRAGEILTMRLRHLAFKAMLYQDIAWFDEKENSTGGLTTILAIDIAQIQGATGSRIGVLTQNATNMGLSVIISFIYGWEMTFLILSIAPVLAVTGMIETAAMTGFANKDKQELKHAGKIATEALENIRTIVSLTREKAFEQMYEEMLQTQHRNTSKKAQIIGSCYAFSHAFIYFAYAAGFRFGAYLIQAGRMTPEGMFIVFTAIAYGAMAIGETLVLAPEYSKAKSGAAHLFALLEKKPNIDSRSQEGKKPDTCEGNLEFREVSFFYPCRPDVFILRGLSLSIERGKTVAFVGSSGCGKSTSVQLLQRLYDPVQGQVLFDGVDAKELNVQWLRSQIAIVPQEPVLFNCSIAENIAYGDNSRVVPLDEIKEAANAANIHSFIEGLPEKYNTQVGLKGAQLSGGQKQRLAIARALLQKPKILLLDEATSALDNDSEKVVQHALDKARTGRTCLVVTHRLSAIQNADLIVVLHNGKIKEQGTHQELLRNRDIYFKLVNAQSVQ
# B5: Mothers against decapentaplegic homolog 4 (Homo sapiens), Q13485 (parent)
# chain: B1 chain
# partner: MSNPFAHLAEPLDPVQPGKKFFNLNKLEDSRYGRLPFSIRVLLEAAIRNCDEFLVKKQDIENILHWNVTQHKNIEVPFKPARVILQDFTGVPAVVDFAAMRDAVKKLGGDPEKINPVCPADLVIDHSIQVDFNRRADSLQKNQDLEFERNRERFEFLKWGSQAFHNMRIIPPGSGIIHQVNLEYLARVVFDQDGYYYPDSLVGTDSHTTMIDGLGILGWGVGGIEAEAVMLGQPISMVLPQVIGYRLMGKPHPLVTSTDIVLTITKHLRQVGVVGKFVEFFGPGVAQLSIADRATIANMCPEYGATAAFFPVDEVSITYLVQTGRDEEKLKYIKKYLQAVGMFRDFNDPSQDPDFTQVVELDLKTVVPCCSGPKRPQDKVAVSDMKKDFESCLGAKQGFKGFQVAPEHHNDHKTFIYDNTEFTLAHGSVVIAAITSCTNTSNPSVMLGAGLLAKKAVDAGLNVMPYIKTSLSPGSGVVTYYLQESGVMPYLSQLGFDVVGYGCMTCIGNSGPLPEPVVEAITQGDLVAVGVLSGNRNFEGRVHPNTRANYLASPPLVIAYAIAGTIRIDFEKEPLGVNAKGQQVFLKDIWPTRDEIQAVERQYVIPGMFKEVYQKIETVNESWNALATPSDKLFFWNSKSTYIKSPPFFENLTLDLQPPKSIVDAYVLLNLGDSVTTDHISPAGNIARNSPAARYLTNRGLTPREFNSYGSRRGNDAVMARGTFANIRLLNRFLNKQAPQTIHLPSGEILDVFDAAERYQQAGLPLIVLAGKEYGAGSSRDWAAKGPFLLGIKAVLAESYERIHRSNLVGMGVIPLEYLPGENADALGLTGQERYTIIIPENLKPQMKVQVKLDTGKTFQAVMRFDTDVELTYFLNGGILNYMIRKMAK
# Variants of: B1
# Conditions: with arfrp_human ARFRP1, Q13795
row,effect of a mutation on the interaction,Variant
1,with no effect,G386D

# Variants of: B1
# Conditions: with arfrp_human ARFRP1, Q13795
# Remark: another data set of the same source
row,effect of a mutation on the interaction,Variant
1,with no effect,R361H

# Variants of: B1
# Conditions: with arfrp_human ARFRP1, Q13795
# Remark: another data set of the same source
row,effect of a mutation on the interaction,Variant
1,with no effect,R361C

# Variants of: B1
# Conditions: with arfrp_human ARFRP1, Q13795
# Remark: another data set of the same source
row,effect of a mutation on the interaction,Variant
1,with no effect,D351H

# Variants of: B2
# Conditions: with anxa7_human ANXA7, P20073
row,effect of a mutation on the interaction,Variant
1,with no effect,R361C

# Variants of: B2
# Conditions: with anxa7_human ANXA7, P20073
# Remark: another data set of the same source
row,effect of a mutation on the interaction,Variant
1,with no effect,R361H

# Variants of: B2
# Conditions: with anxa7_human ANXA7, P20073
# Remark: another data set of the same source
row,effect of a mutation on the interaction,Variant
1,with no effect,D351H

# Variants of: B2
# Conditions: with anxa7_human ANXA7, P20073
# Remark: another data set of the same source
row,effect of a mutation on the interaction,Variant
1,with no effect,G386D

# Variants of: B3
# Conditions: with braf_human BRAF
row,effect of a mutation on the interaction,Variant
1,disrupting interaction strength,K49E

# Variants of: B4
# Conditions: with abcb5_human ABCB5, Q2M3G0
row,effect of a mutation on the interaction,Variant
1,with no effect,D351H

# Variants of: B4
# Conditions: with abcb5_human ABCB5, Q2M3G0
# Remark: another data set of the same source
row,effect of a mutation on the interaction,Variant
1,with no effect,R361H

# Variants of: B4
# Conditions: with abcb5_human ABCB5, Q2M3G0
# Remark: another data set of the same source
row,effect of a mutation on the interaction,Variant
1,with no effect,R361C

# Variants of: B4
# Conditions: with abcb5_human ABCB5, Q2M3G0
# Remark: another data set of the same source
row,effect of a mutation on the interaction,Variant
1,with no effect,G386D

# Variants of: B5
# Conditions: with acohc_human ACO1, P21399
row,effect of a mutation on the interaction,Variant
1,with no effect,R361C

# Variants of: B5
# Conditions: with acohc_human ACO1, P21399
# Remark: another data set of the same source
row,effect of a mutation on the interaction,Variant
1,with no effect,R361H

# Variants of: B5
# Conditions: with acohc_human ACO1, P21399
# Remark: another data set of the same source
row,effect of a mutation on the interaction,Variant
1,with no effect,D351H

# Variants of: B5
# Conditions: with acohc_human ACO1, P21399
# Remark: another data set of the same source
row,effect of a mutation on the interaction,Variant
1,with no effect,G386D

# From IntAct's records for PubMed 35512704
